Molecular target: VLDLR(28–797)Δ(751–779)-C-tag (VLDLR ectodomain), P98155-2
Test: ELISA
Conditions: chain shown with the change, VLDLR-ed coated on microtiter plates, background binding to BSA subtracted; for Kd: parent: 79.6 nM; for response (Absorbance (450nm)): fitted binding curve read at Clu 1.0 µM, parent: est. 0.48, read off a plot

Row | Binder | Kd (Clu 0-2.0 µM) | Kd (Clu 0-1.0 µM) | also measured
1 | wild-type human clusterin (WT Clu), P10909 K123Q; R127Q; R130Q; R138Q; R282Q; R286Q; R289Q (protein) MMKTLLLFVGLLLTWESGQVLGDQTVSDNELQEMSNQGSKYVNKEIQNAVNGVKQIKTLIEKTNEERKTLLSNLEEAKKKKEDALNETRESETKLKELPGVCNETMMALWEECKPCLKQTCMQFYAQVCQSGSGLVGQQLEEFLNQSSPFYFWMNGDRIDSLLENDRQQTHMLDVMQDHFSRASSIIDELFQDRFFTREPQDTYHYLPFSLPHRRPHFFFPKSRIVRSLMPFSPYEPLNFHAMFQPFLEMIHEAQQAMDIHFHSPAFQHPPTEFIREGDDDQTVCQEIQHNSTGCLRMKDQCDKCREILSVDCSTNNPSQAKLRRELDESLQVAERLTRKYNELLKSYQWKMLNTSSLLEQLNEQFNWVSRLANLTQGEDQYYLRVTTVASHTSDSDVPSGVTEVVVKLFDSDPITVTVPVEVSRKNPKFMETVAEKALQEYRKKHREE | 1180 nM |  | 
2 | wild-type human clusterin (WT Clu), P10909 Y204S; Y206S; L207S; F209S; L211S; F218S; F219S; F220S (protein) MMKTLLLFVGLLLTWESGQVLGDQTVSDNELQEMSNQGSKYVNKEIQNAVNGVKQIKTLIEKTNEERKTLLSNLEEAKKKKEDALNETRESETKLKELPGVCNETMMALWEECKPCLKQTCMKFYARVCRSGSGLVGRQLEEFLNQSSPFYFWMNGDRIDSLLENDRQQTHMLDVMQDHFSRASSIIDELFQDRFFTREPQDTSHSSPSSSPHRRPHSSSPKSRIVRSLMPFSPYEPLNFHAMFQPFLEMIHEAQQAMDIHFHSPAFQHPPTEFIREGDDDRTVCREIRHNSTGCLRMKDQCDKCREILSVDCSTNNPSQAKLRRELDESLQVAERLTRKYNELLKSYQWKMLNTSSLLEQLNEQFNWVSRLANLTQGEDQYYLRVTTVASHTSDSDVPSGVTEVVVKLFDSDPITVTVPVEVSRKNPKFMETVAEKALQEYRKKHREE |  |  | response (Absorbance (450nm)): 0.16
3 | wild-type human clusterin (WT Clu), P10909 S161R (protein) chain 1: DQTVSDNELQEMSNQGSKYVNKEIQNAVNGVKQIKTLIEKTNEERKTLLSNLEEAKKKKEDALNETRESETKLKELPGVCNETMMALWEECKPCLKQTCMKFYARVCRSGSGLVGRQLEEFLNQSSPFYFWMNGDRIDRLLENDRQQTHMLDVMQDHFSRASSIIDELFQDRFFTREPQDTYHYLPFSLPHRRPHFFFPKSRIVR chain 2: SLMPFSPYEPLNFHAMFQPFLEMIHEAQQAMDIHFHSPAFQHPPTEFIREGDDDRTVCREIRHNSTGCLRMKDQCDKCREILSVDCSTNNPSQAKLRRELDESLQVAERLTRKYNELLKSYQWKMLNTSSLLEQLNEQFNWVSRLANLTQGEDQYYLRVTTVASHTSDSDVPSGVTEVVVKLFDSDPITVTVPVEVSRKNPKFMETVAEKALQEYRKKHREE |  | 376 nM | 
4 | wild-type human clusterin (WT Clu), P10909 L229S; M230S; F232S; Y235S (protein) MMKTLLLFVGLLLTWESGQVLGDQTVSDNELQEMSNQGSKYVNKEIQNAVNGVKQIKTLIEKTNEERKTLLSNLEEAKKKKEDALNETRESETKLKELPGVCNETMMALWEECKPCLKQTCMKFYARVCRSGSGLVGRQLEEFLNQSSPFYFWMNGDRIDSLLENDRQQTHMLDVMQDHFSRASSIIDELFQDRFFTREPQDTYHYLPFSLPHRRPHFFFPKSRIVRSSSPSSPSEPLNFHAMFQPFLEMIHEAQQAMDIHFHSPAFQHPPTEFIREGDDDRTVCREIRHNSTGCLRMKDQCDKCREILSVDCSTNNPSQAKLRRELDESLQVAERLTRKYNELLKSYQWKMLNTSSLLEQLNEQFNWVSRLANLTQGEDQYYLRVTTVASHTSDSDVPSGVTEVVVKLFDSDPITVTVPVEVSRKNPKFMETVAEKALQEYRKKHREE | 989 nM |  | 
5 | wild-type human clusterin (WT Clu), P10909 V369K; A373T; T376K (protein) MMKTLLLFVGLLLTWESGQVLGDQTVSDNELQEMSNQGSKYVNKEIQNAVNGVKQIKTLIEKTNEERKTLLSNLEEAKKKKEDALNETRESETKLKELPGVCNETMMALWEECKPCLKQTCMKFYARVCRSGSGLVGRQLEEFLNQSSPFYFWMNGDRIDSLLENDRQQTHMLDVMQDHFSRASSIIDELFQDRFFTREPQDTYHYLPFSLPHRRPHFFFPKSRIVRSLMPFSPYEPLNFHAMFQPFLEMIHEAQQAMDIHFHSPAFQHPPTEFIREGDDDRTVCREIRHNSTGCLRMKDQCDKCREILSVDCSTNNPSQAKLRRELDESLQVAERLTRKYNELLKSYQWKMLNTSSLLEQLNEQFNWKSRLTNLKQGEDQYYLRVTTVASHTSDSDVPSGVTEVVVKLFDSDPITVTVPVEVSRKNPKFMETVAEKALQEYRKKHREE |  | 109 nM | 
6 | wild-type human clusterin (WT Clu), P10909 A108E; L109S; E112K; P115Q; K304A; E307H (protein) MMKTLLLFVGLLLTWESGQVLGDQTVSDNELQEMSNQGSKYVNKEIQNAVNGVKQIKTLIEKTNEERKTLLSNLEEAKKKKEDALNETRESETKLKELPGVCNETMMESWEKCKQCLKQTCMKFYARVCRSGSGLVGRQLEEFLNQSSPFYFWMNGDRIDSLLENDRQQTHMLDVMQDHFSRASSIIDELFQDRFFTREPQDTYHYLPFSLPHRRPHFFFPKSRIVRSLMPFSPYEPLNFHAMFQPFLEMIHEAQQAMDIHFHSPAFQHPPTEFIREGDDDRTVCREIRHNSTGCLRMKDQCDACRHILSVDCSTNNPSQAKLRRELDESLQVAERLTRKYNELLKSYQWKMLNTSSLLEQLNEQFNWVSRLANLTQGEDQYYLRVTTVASHTSDSDVPSGVTEVVVKLFDSDPITVTVPVEVSRKNPKFMETVAEKALQEYRKKHREE |  | 137 nM | 
7 | wild-type human clusterin (WT Clu), P10909 Y125F; G132E; L135K; R138E; Q139A; E142S (protein) MMKTLLLFVGLLLTWESGQVLGDQTVSDNELQEMSNQGSKYVNKEIQNAVNGVKQIKTLIEKTNEERKTLLSNLEEAKKKKEDALNETRESETKLKELPGVCNETMMALWEECKPCLKQTCMKFFARVCRSESGKVGEALESFLNQSSPFYFWMNGDRIDSLLENDRQQTHMLDVMQDHFSRASSIIDELFQDRFFTREPQDTYHYLPFSLPHRRPHFFFPKSRIVRSLMPFSPYEPLNFHAMFQPFLEMIHEAQQAMDIHFHSPAFQHPPTEFIREGDDDRTVCREIRHNSTGCLRMKDQCDKCREILSVDCSTNNPSQAKLRRELDESLQVAERLTRKYNELLKSYQWKMLNTSSLLEQLNEQFNWVSRLANLTQGEDQYYLRVTTVASHTSDSDVPSGVTEVVVKLFDSDPITVTVPVEVSRKNPKFMETVAEKALQEYRKKHREE | 1190 nM |  | 
8 | wild-type human clusterin (WT Clu), P10909 Y204S; Y206S; L207S; F209S; L211S; F218S; F219S; F220S; L229S; M230S; F232S; Y235S (protein) MMKTLLLFVGLLLTWESGQVLGDQTVSDNELQEMSNQGSKYVNKEIQNAVNGVKQIKTLIEKTNEERKTLLSNLEEAKKKKEDALNETRESETKLKELPGVCNETMMALWEECKPCLKQTCMKFYARVCRSGSGLVGRQLEEFLNQSSPFYFWMNGDRIDSLLENDRQQTHMLDVMQDHFSRASSIIDELFQDRFFTREPQDTSHSSPSSSPHRRPHSSSPKSRIVRSSSPSSPSEPLNFHAMFQPFLEMIHEAQQAMDIHFHSPAFQHPPTEFIREGDDDRTVCREIRHNSTGCLRMKDQCDKCREILSVDCSTNNPSQAKLRRELDESLQVAERLTRKYNELLKSYQWKMLNTSSLLEQLNEQFNWVSRLANLTQGEDQYYLRVTTVASHTSDSDVPSGVTEVVVKLFDSDPITVTVPVEVSRKNPKFMETVAEKALQEYRKKHREE |  |  | response (Absorbance (450nm)): 0.055

From PMC12527946
